From the supplement of paper PMC12636428

System: Saccharomyces cerevisiae
Test: transcriptional activation domain activity (GFP:mCherry ratio, weighted mean of sorted bins, harmonized to initial dataset scale) (arbitrary fluorescence ratio units); higher = stronger transcriptional activation
Details: beta-estradiol 1 µM; induction time 4 h
In short: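 Protein tiles carrying barcodes and fused to an estradiol-inducible synthetic transcription factor were placed at the URA3 locus of yeast diploids with a GFP reporter. Following 4 hours at 30 °C in SC with 1 uM beta-estradiol, cells were sorted into 8 GFP:mCherry bins, barcodes were sequenced, and tiles with fewer than 50 reads were discarded. Activation activity is given as the read-weighted mean of bin median fluorescence, averaged across barcodes and linearly mapped to the initial dataset scale.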

Row | Sequence | transcriptional activation domain activity
1 | VLMLIVSNLRLMIENFKKYGVLICLSCHDYRRQDVIYGSILYLLVPCHLFVAY | 41900
2 | WLSHSKKKTCDVCKHPYSFTKVYAEDMPSRLPLVLLLRKLIEQVFYTALFCIR | 54100
3 | HCCRLLFLLFLFLFFFLLLFICFFLRLLRLLFPHRNTNLTRPIADPIIPIIPP | 46900
4 | LLLHVLIALRFWRFFGYSIGMVCGILLELVGYCGKVQLSHNRDNKDGYIIGLT | 50800
5 | MWSLCILLVGLLIWYIVFFSYPPPNRIYLFSPSLGVCLVSFFFFLWGLFGGVF | 53400
6 | TSPAPASSANGPAPPRRKRQATTAACRACRKRKSKCDGARPTCSVCRDRKTKC | 13100
7 | LALQRMDWHSVFRKTFYESRSWLHLLTNFSRIWIMHISAFWYYMAANIDFFYR | 56400
8 | NLISLPLLKLCSEFAHVKWYEVLSHIVCFGFNGPTKPRSNNLVSLNLQCEHYK | 48400
9 | FFPLGFLMRFLLFDLSLSCFLSFPLFLFSLPTTFLLYYYFPPHTIIMSCGSPI | 43500
10 | RQRAGASGGEEARGRREGRREGGEGEGEGKTEEGTNERDGREGERREGRRRGG | 37700
11 | ELENQSSLYYLPIHEETPFFIDLIPNGFYLETKRSADNLFGLFTDRAIENRDP | 83800
12 | RHAIVVKRVIRMSGKGKMSRMSALVVVGDGKGMVGFGEAKDPNAGKAGRKAFQ | 32800
13 | LNWYWLTTTMYFLYGESMLFYFKHIVLVGSVLTPLATHHRFISFTLYIFGFIF | 42000
14 | STLVFLKLYSSLMLGTCLTSILCFSLPDFFPGKRGFAIGLCLYHSICSTVLFQ | 63900
15 | FALTFFWSLIGYWVPFFEAIHLFWWIGYRANYVPLMSADVAWRWFFKWDFPFF | 62000
16 | MTVDTLSYTLFPFYSLLSHFLLLLAEIVLCLKYCLLLTLFSILLFLLVFLFLA | 32800
17 | VYKRKILVLIYKIAHLTDLYLEVANGGPKLRLHLSALSFHTCAWKSKGLSIPE | 35900
18 | MRGFFWQILLQTCLLPIVTCTLLPTPLMPFCALQHTPLSNLFLLLSWLYFLPY | 48400
19 | SNARGSDPSSYAIEGEYKTLATDDLGNILNLNYGETNEVIMNEINDLNLPLGP | 112000
20 | CNICVLLCQIIEVASLVEQRDTIELIKTRYLNRLKLMKPDDVLQTYVSTLLNA | 32400
21 | SLAFPLFIIARYFPLGLIAIDFIQLAAPTHSQVTCTVLFRLYILLLMIITFST | 40900
22 | AGQLGYDPVFGICWYNNSDPAMKLRWMLGSQLFWLLFMSTSEVVFFLVLVCFM | 43500
23 | GGGEAQKPRPAAERKKQEANGHAHHDHSQGNHHGHRHKHAKDAKKAEDGGARK | 32500
24 | LEEAEDGGGALADGEIEVRVAATGVTVDDARAAAGLRAGYTVGTECSGTVARV | 11500
25 | GGALSHHEIRVHWAPSWVSSRAPCSTRGLGCKPGVSLIETVVRAVVLMSCARK | 46200

Row | Sequence | transcriptional activation domain activity
26 | DNMDSDFLSRTPNYNAFSLEATSHNPADNANELGSQSNRETNSPSVFYPQANT | 22500
27 | PFSHFVRMLLIYLPSLRLIVYYAFSFTLIMPFVLGYSVFMPSNWDTATFFFSY | 61900
28 | PSASLSFVSFFFFFLFLPLTFSSSYFFFLPFSSFPLFSSLSSTHIWSFLLSPL | 39800
29 | EDGGEDGETGGKILTKAEKEKQKKEREKQRKKEQATPAKAAAEEKKVEAAPAA | 32100
30 | ESSGGESEDDYVQEKRSSKPKRRGSRRGDEEEGGGGRKRAAQKKRKRKQPEEV | 34800
31 | VEQYLHLLPPHSLQEIRWRWRMTKVSRPIPEKMKLVRLNLKAVKHIHLFMKSA | 31500
32 | DKRLENAQTLIPDGMKVRPMEDCITEAPTLIMARFNIVLLYLKTRVVLHRNYL | 62400
33 | MLMTKYMCKGSRLIFIFFCVFRLSMLFTFFSIVSDSCLYWCRVISYLVLLMTL | 63700
34 | GTGRSSDDVSSGAGSEEVSQTLDEKMAEEQKGRQRLNNIIQQFYIKGALVIVG | 67400
35 | MSSAASSTGSPRPKRRRRRPARSCEQCRRRKIRCDMGQPCNGCVRARVSMECS | 38300
36 | SKFASSGLFGVDVYSVWKRATEKISDGNNTTDSNQKHHPYHNHPSNDSGNEKN | 41500
37 | AAAPAAAANDGTTKKKGKGQKATRSPKGKGKSKKKGKGAAAAAAAPAAAKAVS | 14600
38 | ISMEKIGRRAFNKGMKNIDEGPETENDATENSLTTILNDLEGPLEDFSENFID | 34300
39 | LSIWVKYLGCIVRWRKVRIFGESILPIQLLVVVVLLTLRPCSICAPLKVLPYK | 66000
40 | SGSAAGPSSNAAEKETKEKSGQRRRGRRGGGGGGGGGGGDKNAATGTSQGASG | 35200
41 | MLVRLFFCCYCCCLPVCLSVCLLHVVRCVMLLLTLMLFALLLRTCATLFFLFF | 61400
42 | QLMESVSELDLPPLTLDEPPQAIKFNLNLFNNDPSGQQQQQQQQQQNSTSSTI | 29000
43 | KSKKKRRMEEEEEGDEEEEEEQREREEERGERGEREARVRREGKAKKSASSRD | 17300
44 | SNDSSDEEDRKSRRKSKKKAKDRDASKERSKKDDKGKKKSRTSKGRSRKDEDS | 18600
45 | VLQILAFAMFIICTLTLQLRLRSNPPVQCVAGVVTHYRRYFIALYCTSGLFLI | 56600
46 | KPHHKWIIPTPFASHAFHPVDGYLQSVPYHLFIFLFPMHQYVYLGLFVAVNFW | 72400
47 | MITRCHLIIFLFWLLLLLLLFRCWATFLCISAWLFAKQEKQTFCQPCLLIMRV | 38200
48 | VFYGSNYFFICAISYVKGLGFCISDSFRYSWMSISPYWMIFMVVCNILPAILI | 63900
49 | LSLLVLGCWIPCIVVMEGYLRSLTFESFPYPGLYCFTSQGSHIVYLCWVLVAV | 46200
50 | MGMEHLAQPDQPNKKKRRRQALSCTECKRRKIKCDRKQPCSPCTRRGEQAKCQ | 29900

Row | Sequence | transcriptional activation domain activity
51 | MEGRHISVIKQLYGLYWLDVWKISLQLWSEVKGMYHVLQQNLWIITLFPFFAA | 64000
52 | FYAALYPFKGIFFFIGHPFLYPLARARLIPAFLLSAFVLLNLFFWTYLPQVAF | 34300
53 | ARQSDDDGQVKVYQRGSASLVAMLLTNLAPNETLIALINLIADRPWLKALYAL | 80500
54 | FNLNEILPLPASDFKLNTVTNLNEIDFTNIFTKSPHPHSGSTHPRQVFDQLDD | 51600
55 | SSAKDIEGDGDGADVIRNNRLAKRSTAGVKVKKHVAQIIKMRKVTPRSIAYIA | 40000
56 | MLTWFFSYRLELLPFFYIIFSPIVFLLFSIFLLVLLRSFVCRLICFCLFLQSV | 56500
57 | EYAPKTPVVAAAVPKEEKKEEKAEEVKEAKEEENKEIKDEKKDTRKSRSASRK | < 6570
58 | IFFVLPVFFFFHPPPFVFLPPSSFLPFLLLLLLLPLVLFISPPFSPSVAFYFT | 54100
59 | MPSFTLAWPDRAYFYSLLVVSLLSAKFLHLFSHLTALPIFLFLLYFPTFVFLD | 76700
60 | MFCLRSWLPLLFIPTNASPAFILLFFIGTYFLNRPCVYCSLLLLILFCTSCVW | 40200
61 | QPQSPYQQAVLPYATIPNSNFQPSSFPVMAVMPPEVQFDGSFLNTLHPHTELP | 34400
62 | YLMVLYYTSRPVLFLVCAGNELCFIFIYCLGWFSHWLLWLGLLISIPVCLFKQ | 71800
63 | VTSLATARLPAARPRTAVLPARATSAVRRVTCRANAPRTAVRVTAATVPSATR | 45400
64 | DGKWCLRFVPRGQRWLLAITRDFTDTAMMSVAARMVWHPIAYTVCLLPVTIAR | 55000
65 | LRWMLRCAFALTRYGTTAFLLFFVYVVFLLRVYLLTDRRRSLLYCLTATFVVE | 40100
66 | AVWPLSERSKFHNIISVDLSDLGDVINPDVGTITELVCFDESIADLYPVGLDS | 122000
67 | STVHNLVELMPLQQLCGFCCFSMRFVVFLDLLSTVVAPVIVVYIGYLIYILAY | 56100
68 | YNVWILFRHLVDLILLNDFVAYSLFGFSWMQFSPNHSTFFHVLRWIGGWSLVG | 69200
69 | MPGLCIWYGVFWVVGFFSFFLLVLRVMGFLVCVFVRLVCVCFFRAFDICFFFS | 34500
70 | MVGLVGFWVLFLFFLCPFLFSCPLPLPPLRPSLYIFQISYGSFFSCFSFLFFS | 63800
71 | LADYMCDYSGSLIGKHFKTLAQIMPFAIQDLVPSSVQAAWLLIGRLVVLLWVT | 52900
72 | MGFLLLLLILVFFFVLYLFYSFLFFFSFHWACCILYDMWEKERVELYLLLLLL | 42800
73 | SLLQSLPFPLQFLTLCFNSHLLIVIVVIIGCILESIYVGTFLWMLLRVCRWQG | 66500
74 | PCMLRLLIWIAFKLVPENSSIREPLNFLLDHPRRCYTLLFPSGPTWTLFAFLV | 60500
